Laboratory results published in the supplement of paper PMC7877785.
± gives the uncertainty stated by the source.

Assay: self-splicing fitness, log relative to wild type (ln ratio); higher = more splicing; Tetrahymena group I intron in knt gene, E. coli kanamycin selection, DiMSum; sequences stand for … in CUCUCU…GGAGGGAAAAGUUAUCAGGCAUGCACCUGGUAGCUAGUCUUUAAACCAAUAGAUUGCAUCGGUUUAAAAGGCAAGACCGUCAAAUUGCGGGAAAGGGGUCAACAGCCGUUCAGUACCAAGUCUCAGGGGAAACUUUGAGAUGGCCUUGCAAAGGGUAUGGUAAUAAGCUGACGGACAUGGUCCUAACCACGCAGCCAAGUCCUAAGUCAACAGAUCUUCUGUUGAUAUGGAUGCAGUUCACAGACUAAAUGUCGGUCGGGGAAGAUGUAUUCUUCUCAUAAGAUAUAGUCGGACCUCUCCUUAAUGGGAGCUAGCGGAUGAAGUGAUGCAACACUGGAGCCGCUGGGAACUAAUUUGUAUGCGAAAGUAUAUUGAUUAGUUUUGGAGUACUCGUGGUCG
Outline: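 Library with all eight P1ex-region intron nucleotides randomised, intron inside the knt kanamycin-resistance gene on pET-22b(+), in E. coli BL21(DE3). Cells grew overnight at 37°C or 30°C on LB agar with or without 25 μg/mL kanamycin (plus 100 μg/mL carbenicillin, 50 μM IPTG, 0.2% rhamnose), in six replicate transformations. Pooled colonies were amplicon-sequenced on Illumina HiSeq 2500. DiMSum fitness is the error-weighted combination of wild-type-normalised replicate fold changes, kanamycin versus none.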

Row | Sequence | self-splicing fitness (ln) (30 °C) | self-splicing fitness (ln) (37 °C)
1 | GUAAAGCAAUAUUACGCACG | -0.557 ± 0.067 | -0.242 ± 0.093
2 | UGUUAGCAAUAUUACGCACA | -1.21 ± 0.12 | -0.549 ± 0.11
3 | AUAUAGCAAUAUUACGACAG | -2.12 ± 0.19 | -1.51 ± 0.27
4 | UUUUAGCAAUAUUACGCCUG | -0.393 ± 0.22 | 0.333 ± 0.3
5 | GAAUAGCAAUAUUACGGCGC | 0.0238 ± 0.14 | 0.023 ± 0.16
6 | ACCGAGCAAUAUUACGAUGU | -2.71 ± 0.12 | -1.86 ± 0.12
7 | CCUGAGCAAUAUUACGAAUA | -2.69 ± 0.38 | -1.35 ± 0.21
8 | UAUGAGCAAUAUUACGGAUA | -2 ± 0.23 | 0.104 ± 0.21
9 | UGAUAGCAAUAUUACGAAUU | -4.02 ± 0.46 | -2.64 ± 0.23
10 | ACAGAGCAAUAUUACGGACG | -3.09 ± 0.17 | -0.53 ± 0.33
11 | ACAGAGCAAUAUUACGACAU | -3.246 ± 0.021 | -2.17 ± 0.036
12 | UUGCAGCAAUAUUACGUGAG | -0.139 ± 0.078 | -0.302 ± 0.099
13 | GUUCAGCAAUAUUACGAUUA | -0.665 ± 0.12 | -0.545 ± 0.097
14 | GUGAAGCAAUAUUACGCCAC | -2.66 ± 0.5 | 
15 | UGGCAGCAAUAUUACGAUAG | -2.32 ± 0.098 | -0.473 ± 0.094
16 | ACCCAGCAAUAUUACGGAAC | -1.91 ± 0.058 | -0.721 ± 0.066
17 | GUAUAGCAAUAUUACGCGCA | -1.2 ± 0.17 | -0.955 ± 0.14
18 | UAUGAGCAAUAUUACGAUCC |  | -3.06 ± 0.47
19 | AAGCAGCAAUAUUACGAAGC | -3.33 ± 0.29 | -1.93 ± 0.27
20 | UUAUAGCAAUAUUACGGCUA | -0.836 ± 0.15 | -0.316 ± 0.14
21 | UGGUAGCAAUAUUACGCUGC | -2.89 ± 0.31 | -2.86 ± 0.4
22 | CAUUAGCAAUAUUACGGCGG | 0.0154 ± 0.093 | 0.252 ± 0.12
23 | CUCUAGCAAUAUUACGCAAG | -3.98 ± 0.27 | -1.95 ± 0.2
24 | UCCCAGCAAUAUUACGCAAC | -3.01 ± 0.37 | -2.19 ± 0.37
25 | CCACAGCAAUAUUACGGAUC | -4.54 ± 0.34 | -2.8 ± 0.27
26 | UUGCAGCAAUAUUACGUGGU | -2.14 ± 0.16 | -2.76 ± 0.28

Row | Sequence | self-splicing fitness (ln) (30 °C) | self-splicing fitness (ln) (37 °C)
27 | CAUUAGCAAUAUUACGAACG | 0.479 ± 0.09 | 0.736 ± 0.099
28 | GCUCAGCAAUAUUACGGCUU | -0.675 ± 0.066 | -0.385 ± 0.071
29 | UACUAGCAAUAUUACGGGUC | -2.68 ± 0.21 | -2.29 ± 0.26
30 | UGGGAGCAAUAUUACGAAAA | -2.22 ± 0.31 | -2.16 ± 0.34
31 | AAGUAGCAAUAUUACGGAGC | -3.21 ± 0.32 | -1.35 ± 0.23
32 | AAUAAGCAAUAUUACGAAGG | -3.39 ± 0.48 | -2.04 ± 0.39
33 | AUAGAGCAAUAUUACGUGAG | -3.77 ± 0.21 | -2.42 ± 0.14
34 | GCUAAGCAAUAUUACGCCGC | -2.72 ± 0.48 | 
35 | CCUAAGCAAUAUUACGGAUG | -2.08 ± 0.082 | -1.16 ± 0.085
36 | GUAAAGCAAUAUUACGUCAA | -1.56 ± 0.098 | -0.85 ± 0.097
37 | CUGCAGCAAUAUUACGCCGG | -2.55 ± 0.19 | -1.56 ± 0.29
38 | UAGAAGCAAUAUUACGGGCC |  | -1.9 ± 0.31
39 | GGGCAGCAAUAUUACGUAGA | -1.53 ± 0.063 | -0.244 ± 0.083
40 | GCGAAGCAAUAUUACGUCUA | -1.16 ± 0.1 | -1.3 ± 0.093
41 | GACCAGCAAUAUUACGCAGA | -1.57 ± 0.11 | -0.378 ± 0.093
42 | UCUGAGCAAUAUUACGAGCC | -1.65 ± 0.22 | 
43 | UAUAAGCAAUAUUACGACCA | -0.816 ± 0.092 | 0.038 ± 0.12
44 | UACGAGCAAUAUUACGGUCU | -4.06 ± 0.34 | -3.1 ± 0.4
45 | UCUCAGCAAUAUUACGCUCC | -1.02 ± 0.39 | 
46 | UCGAAGCAAUAUUACGCGAG | -1.47 ± 0.074 | -0.905 ± 0.1
47 | GCCAAGCAAUAUUACGACAU | -2.357 ± 0.015 | -1.37 ± 0.033
48 | CACAAGCAAUAUUACGCGGU | -3.66 ± 0.15 | -2.04 ± 0.12
49 | GCCGAGCAAUAUUACGAGCU | -2.84 ± 0.26 | -3.15 ± 0.33
50 | GCGUAGCAAUAUUACGGUUU | -1.03 ± 0.1 | -0.436 ± 0.13
51 | AGCAAGCAAUAUUACGAGAU | -3.64 ± 0.24 | -1.27 ± 0.21
52 | GUGUAGCAAUAUUACGUGCA | -2.55 ± 0.21 | -1.11 ± 0.26

Row | Sequence | self-splicing fitness (ln) (30 °C) | self-splicing fitness (ln) (37 °C)
53 | AACCAGCAAUAUUACGAUUC | -1.63 ± 0.071 | -0.153 ± 0.084
54 | GGUGAGCAAUAUUACGCAUA | -0.925 ± 0.15 | -1.55 ± 0.22
55 | UGAGAGCAAUAUUACGGGUG | -3.65 ± 0.19 | -2.11 ± 0.19
56 | AUAGAGCAAUAUUACGUGAC | -1.62 ± 0.23 | -1.6 ± 0.28
57 | UCCCAGCAAUAUUACGGCAG | -4.36 ± 0.29 | -2.58 ± 0.2
58 | UCUCAGCAAUAUUACGUUCU | -3.49 ± 0.16 | -1.86 ± 0.17
59 | UAGAAGCAAUAUUACGUGCU | -2.8 ± 0.21 | -2.42 ± 0.24
60 | UUUUAGCAAUAUUACGUUAU | -2.53 ± 0.25 | -1.73 ± 0.35
61 | AACAAGCAAUAUUACGUAGA | -2.88 ± 0.089 | -0.993 ± 0.077
62 | CUCUAGCAAUAUUACGUAGG | -2.83 ± 0.18 | -1.9 ± 0.22
63 | CCCCAGCAAUAUUACGGCAU | -3.43 ± 0.14 | -2.42 ± 0.14
64 | CUAGAGCAAUAUUACGGCUU | -2.92 ± 0.24 | -1.94 ± 0.26
65 | CCCUAGCAAUAUUACGAGCU | -4.02 ± 0.24 | -1.87 ± 0.2
66 | CUGGAGCAAUAUUACGGCUA |  | -1.11 ± 0.47
67 | UACCAGCAAUAUUACGCUGA | -2.43 ± 0.15 | -1.21 ± 0.11
68 | ACGCAGCAAUAUUACGGUGG | -2.52 ± 0.11 | -1.17 ± 0.11
69 | CCCAAGCAAUAUUACGAAGG | -3.19 ± 0.17 | -2.42 ± 0.17
70 | UAGGAGCAAUAUUACGUCAG | -4.59 ± 0.42 | -1.7 ± 0.26
71 | UAGCAGCAAUAUUACGUGAU | -3.42 ± 0.13 | -1.09 ± 0.11
72 | AUAGAGCAAUAUUACGUGCC | -3.44 ± 0.41 | -1.69 ± 0.4
73 | UGGUAGCAAUAUUACGGAGC |  | -0.765 ± 0.31
74 | AAAGAGCAAUAUUACGGGUU | -3.43 ± 0.16 | -2.78 ± 0.21
75 | AAUGAGCAAUAUUACGUCAC | -2.93 ± 0.41 | -1.92 ± 0.29
76 | CUAAAGCAAUAUUACGUCAA | -4.32 ± 0.32 | -2.08 ± 0.28
77 | CACCAGCAAUAUUACGCUCG | -0.247 ± 0.062 | 0.219 ± 0.087
78 | CCACAGCAAUAUUACGAGCU | -3.67 ± 0.15 | -2.4 ± 0.15
